Entries after “also recorded” stand apart in the source; their conditions may differ.
What was measured:
[1] = target: T1, p75^NTR (Mus musculus, UniProt Q9Z0W1); conditions: in vivo
T1 construct: endogenous in cells; host or cells: murine plasmacytoid dendritic cells differentiated in vitro from bone marrow with Flt3-L (p75NTR+/+ wildtype; p75NTR-/- as control)
T1 sequence (Q9Z0W1 32-427): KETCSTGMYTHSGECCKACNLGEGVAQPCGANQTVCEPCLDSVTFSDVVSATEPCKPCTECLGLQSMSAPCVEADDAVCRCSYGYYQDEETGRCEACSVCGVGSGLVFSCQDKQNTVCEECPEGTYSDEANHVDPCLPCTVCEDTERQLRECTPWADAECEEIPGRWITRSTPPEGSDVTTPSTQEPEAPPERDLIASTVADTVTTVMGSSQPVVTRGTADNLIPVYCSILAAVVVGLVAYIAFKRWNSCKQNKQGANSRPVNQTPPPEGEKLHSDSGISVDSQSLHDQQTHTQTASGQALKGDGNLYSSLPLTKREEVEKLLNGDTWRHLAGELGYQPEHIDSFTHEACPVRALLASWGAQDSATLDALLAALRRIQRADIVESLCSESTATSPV

[2] = target: T2, p75^NTR (Homo sapiens, UniProt P08138); assay: IL-6 produced by anti-FcεRIα activated human PDC (ELISA); type: cell-based; set-up: nerve growth factor receptor p75^NTR, which is expressed by human and murine plasmacytoid dendritic cells (PDC); endogenous in cells; host or cells: primary human plasmacytoid dendritic cells (BDCA-4+ selection) from buffy coats or from peripheral blood of allergic donors; conditions: anti-FcεRIα-FITC activated PDC with NGF 25 ng/ml vs without NGF; p=0.0066
T2 sequence (P08138 29-427): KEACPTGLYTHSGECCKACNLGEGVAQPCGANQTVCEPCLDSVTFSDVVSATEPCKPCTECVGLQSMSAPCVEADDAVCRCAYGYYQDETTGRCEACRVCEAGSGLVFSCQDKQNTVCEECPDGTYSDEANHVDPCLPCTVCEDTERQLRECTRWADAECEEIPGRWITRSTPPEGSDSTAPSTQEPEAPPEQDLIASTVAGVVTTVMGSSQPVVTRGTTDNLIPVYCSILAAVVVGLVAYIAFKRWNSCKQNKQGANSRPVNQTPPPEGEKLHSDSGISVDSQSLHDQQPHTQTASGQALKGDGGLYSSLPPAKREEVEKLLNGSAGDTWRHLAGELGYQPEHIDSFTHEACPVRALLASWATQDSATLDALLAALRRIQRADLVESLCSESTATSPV
Description: PDC isolated from peripheral blood were taken in RPMI 1640 medium (PAA) with penicillin G (100 U/ml), streptomycin ([…]), L-glutamine (2 mM), 10% heat inactivated FBS and IL-3 (R&D system) at 10 ng/ml. 2×10^5 cells were seeded per well in 200 μl medium in U-shaped bottom 96-well plate and incubated at 5% CO2 and 37° C. For IL-6 generation, mouse anti human FcεRI alpha-FITC (eBioscience) was added at 250 ng/ml to designated wells. p75^NTR blocking peptide TAT-Pep5 (Calbiochem) was employed at 100 nM to designated wells. NGF (R&D Systems) was added at concentration of 25 ng/ml to specified wells. All components were added following the sequence mentioned After 14 hour's stimulation the plate was centrifuged (270 g for 5 minutes). Supernatant was analyzed for IL-6 by ELISA (Bender MedSystems).
IL-6 ELISA was carried out following manufacturer's specifications with few modifications. […] Absorbance of whole plate was read on spectrophotometer at 450 nm as primary wave length and 620 nm as reference wave length. […]
We activated peripheral blood purified PDC by cross linking FcεRIα with anti-FcεRIα-FITC in the presence and absence of NGF at 25 ng/ml in-vitro. Supernatant was harvested after 12 hrs of activation and amount of IL-6 secreted was determined by ELISA. We have analysed 18 buffy coat samples.

## NGF: Nerve growth factor, best characterized neurotrophin; natural p75^NTR agonist (R&D Systems)
[1]
  type I diabetes incidence without CpG B: no NGF dependent effect
[1]; iv
  time of onset of PDC induced type I diabetes (diabetes free time): occurred at a significant later stage; also recorded: significantly prolonged
[2]
  production of IL-6: significantly increased

Reference: patent US20190381169A1, “PHARMACEUTICAL COMBINATIONS FOR IMMUNOTHERAPY” (Technische Universitat Dresden, priority 2014, published 2019)
